Consider 12 molecules from US20250243286A1 (SIXPEAKS BIO, published 2025).

Where two headings read alike, the source gives them in different places.

In assay [1] the target is T1, human ActRIIA (human, UniProt P27037 20-135, limits assumed).
T1 construct: antigen in MSD-SET; also called ACVR2A; ActR2A
The assay can be described thus: MSD-SET.

For assay [2], the target named is T2, human ActRIIB (human, UniProt Q13705 19-137, limits assumed).
T2 construct: antigen in MSD-SET; also called ACVR2B; ActR2B
T2 sequence: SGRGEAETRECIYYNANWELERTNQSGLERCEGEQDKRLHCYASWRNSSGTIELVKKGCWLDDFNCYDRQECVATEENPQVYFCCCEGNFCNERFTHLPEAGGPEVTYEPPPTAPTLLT
The assay can be described thus: MSD-SET.

Assay [3] addresses T3, ActRIIA and ActRIIB (on TGFB/SMAD SBE Reporter HEK293 cells) (human). The assay is described as follows: cell-based or functional assay.
Assay [4] deals with T2, human ActRIIB. The assay is described as follows: MSD-SET. The source holds these as a separate data set.
Assay [5] deals with T1, human ActRIIA. The assay can be described thus: MSD-SET. The source holds these as a separate data set.
The target of assay [6] is T2, human ActRIIB. The assay can be described thus: MSD-SET. This is another data set of the same source.
For assay [7], the target named is T3, ActRIIA and ActRIIB (on TGFB/SMAD SBE …). The assay can be described thus: cell-based or functional assay. The source holds these as a separate data set.
Assay [8] concerns the target T1, human ActRIIA. The assay is described as follows: MSD-SET. This is another data set of the same source.

T1 sequence (P27037 20-135 limits assumed): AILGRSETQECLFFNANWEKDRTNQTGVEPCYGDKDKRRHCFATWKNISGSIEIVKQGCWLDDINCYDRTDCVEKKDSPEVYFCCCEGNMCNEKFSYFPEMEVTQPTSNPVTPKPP

B1: Antibody Hutzelbrot (antibody, V domains shown)
VH: QVQLVQSGAEVKKPGASVKVSCKASGYTFTSSYINWVRQAPGQGLEWMGTINAVSGSTSYAQKFQGRVTMTRDTSISTAYMELSRLRSDDTAVYYCARGGWFDYWGQGTLVTVSS
VL: QSALTQPASVSGSPGQSITISCTGTSSDVGSKNYVNWYQQHPGKAPKLMIYGVSKRQSGVSNRFSGSKSGNTASLTISGLQAEDEADYYCGTFAGGDYYGVFGGGTKLTVL
notes: full-length IgG
In general, Kd refers to the constant that tells how readily two partners part at equilibrium. A low value points to a tighter complex. As for B1, the Kd with human ActRIIA [1] turned out to be 0.021 nM. Besides, in the assay with human ActRIIB [2], binding was put at a Kd of 0.01 nM. In addition, in assay [3], the IC50, Activin SMAD RGA amounted to 0.422 nM; the IC50, Myostatin SMAD RGA is 0.73 nM; the IC90, Activin SMAD RGA is 3.62 nM; the IC90, Myostatin SMAD RGA worked out at 3.06 nM.

B2: Ofaschlupfer, Mouse IgG2a-PALALA (antibody, V domains shown)
VH: QVQLVQSGAEVKKPGSSVKVSCKASGYTFTSSYINWVRQAPGQGLEWMGTINAVSGSTSYAQKFQGRVTITADTSTSTAYMELSSLRSEDTAVYYCARGGWFDYWGQGTLVTVSS
VL: QSALTQPRSVSGSPGQSVTISCTGTSSDVGSKNYVNWYQQHPGKAPKLMIYGVSKRESGVPDRFSGSKSGNTASLTISGLQAEDEADYYCGTFAGGKYYGVFGGGTKLTVL
notes: mouse IgG2a constant region with PALALA
Take B2: the Kd with human ActRIIB [4] stood at 0.004 nM.

B3: Antibody Hasaschlegel (antibody, V domains shown)
VH: QVQLVQSGAEVKKPGASVKVSCKASGYTFTSSYINWVRQAPGQGLEWMGTINAVSGSTSYAQKFQGRVTMTRDTSISTAYMELSRLRSDDTAVYYCARGGWFDYWGQGTLVTVSS
VL: QSALTQPASVSGSPGQSITISCTGTSSDVGSYDYVNWYQQHPGKAPKLMIHGVSKRESGVSNRFSGSKSGNTASLTISGLQAEDEADYYCGTFAGGSYYGVFGGGTKLTVL
notes: full-length IgG
For the molecule B3, in the assay with human ActRIIA [1], binding was put at a Kd of 0.018 nM. This molecule also came in with a dissociation constant Kd in the assay with human ActRIIB [2] of 0.013 nM. In assay [3], this molecule showed an IC50, Activin SMAD RGA of 0.722 nM; an IC50, Myostatin SMAD RGA of 0.977 nM; an IC90, Activin SMAD RGA of 5.56 nM; an IC90, Myostatin SMAD RGA of 6.59 nM.

B4: Antibody Floischbrühsupp (antibody, V domains shown)
VH: QVQLVQSGAEVKKPGASVKVSCKASGYTFTSSYINWVRQAPGQGLEWMGTINAVSGSTSYAQKFQGRVTMTRDTSISTAYMELSRLRSDDTAVYYCARGGWFDYWGQGTLVTVSS
VL: QSALTQPASVSGSPGQSITISCTGTSSDVGSFNYVNWYQQHPGKAPKLMIKGVSKRESGVSNRFSGSKSGNTASLTISGLQAEDEADYYCGTFAGGAYYGVFGGGTKLTVL
notes: full-length IgG
Molecule B4 yielded a Kd with human ActRIIA [1] of 0.023 nM. This molecule also gave a Kd with human ActRIIB [2] of 0.01 nM. Also, in assay [3], the IC50, Activin SMAD RGA was 0.324 nM; the IC50, Myostatin SMAD RGA was 0.394 nM; the IC90, Activin SMAD RGA worked out at 4.69 nM; the IC90, Myostatin SMAD RGA was 2.62 nM.

B5: Ofaschlupfer, Human IgG1-PALALA-YTE (antibody, V domains shown)
VH: QVQLVQSGAEVKKPGSSVKVSCKASGYTFTSSYINWVRQAPGQGLEWMGTINAVSGSTSYAQKFQGRVTITADTSTSTAYMELSSLRSEDTAVYYCARGGWFDYWGQGTLVTVSS
VL: QSALTQPRSVSGSPGQSVTISCTGTSSDVGSKNYVNWYQQHPGKAPKLMIYGVSKRESGVPDRFSGSKSGNTASLTISGLQAEDEADYYCGTFAGGKYYGVFGGGTKLTVL
notes: human IgG1 with PA-LALA (L234A/L235A/P329A) and YTE (M252Y/S254T/T256E), EU numbering
In the assay with human ActRIIB [4], B5 showed a Kd of 0.003 nM.

B6: Ofaschlupfer, Human IgG1-PALALA (antibody, V domains shown)
VH: QVQLVQSGAEVKKPGSSVKVSCKASGYTFTSSYINWVRQAPGQGLEWMGTINAVSGSTSYAQKFQGRVTITADTSTSTAYMELSSLRSEDTAVYYCARGGWFDYWGQGTLVTVSS
VL: QSALTQPRSVSGSPGQSVTISCTGTSSDVGSKNYVNWYQQHPGKAPKLMIYGVSKRESGVPDRFSGSKSGNTASLTISGLQAEDEADYYCGTFAGGKYYGVFGGGTKLTVL
notes: human IgG1 with PA-LALA (L234A/L235A/P329A), EU numbering
Molecule B6 had a Kd with human ActRIIB [4] of 0.003 nM.

B7: Antibody Ochsauga (antibody, V domains shown)
VH: QVQLVQSGAEVKKPGASVKVSCKASGYTFTSSYINWVRQAPGQGLEWMGTINAVSGSTSYAQKFQGRVTMTRDTSISTAYMELSRLRSDDTAVYYCARGGWFDVWGQGTLVTVSS
VL: QSALTQPASVSGSPGQSITISCTGTSSDIGSYNYVNWYQQHPGKAPKLMIYGVSKRESGVSNRFSGSKSGNTASLTISGLQAEDEADYYCGTFAGGSYYGVFGGGTKLTVL
notes: full-length IgG
As for B7, the Kd with human ActRIIA [1] was 0.016 nM. The molecule further came in with a Kd with human ActRIIB [2] of 0.006 nM. In assay [3], this molecule displayed an IC50, Activin SMAD RGA of 0.238 nM; an IC50, Myostatin SMAD RGA of 0.327 nM; an IC90, Activin SMAD RGA of 3.15 nM; an IC90, Myostatin SMAD RGA of 2.21 nM.

B8: Antibody Dürrfloischeggla (antibody, V domains shown)
VH: QVQLVQSGAEVKKPGASVKVSCKASGYTFTSSYINWVRQAPGQGLEWMGTINAVSGSTSYAQKFQGRVTMTRDVSISTAYMELSRLRSDDTAVYYCARGGWFDYWGQGTLVTVSS
VL: QSALTQPASVSGSPGQSITISCTGTSSDVGSYNVVNWYQQHPGKAPKLMISGVSKRESGVSNRFSGSKSGNTASLTISGLQAEDEADYYCGTFAGGKYYGVFGGGTKLTVL
notes: full-length IgG
B8: the affinity with human ActRIIA [1], expressed as Kd, was 0.033 nM. In the assay with human ActRIIB [2], this molecule registered a Kd of 0.009 nM. In assay [3], this molecule yielded an IC50, Activin SMAD RGA of 0.423 nM; an IC50, Myostatin SMAD RGA of 0.679 nM; an IC90, Activin SMAD RGA of 4.86 nM; an IC90, Myostatin SMAD RGA of 6.09 nM.

B9: Ochsamaulsalat Fab (Fab, V domains shown)
VH: QVQLVQSGAEVKKPGASVKVSCKASGYTFTSSYINWVRQAPGQGLEWMGTINAVSGSTSYAQKFQGRVTMTRDTSISTAYMELSRLRSDDTAVYYCARGGWFDYWGQGTLVTVSS
VL: QSALTQPASVSGSPGQSITISCTGTSSDVGSRNYVNWYQQHPGKAPKLMIYGVSKRESGVSNRFSGSKSGNTASLTISGLQAEDEADYYCGTFAGGDYYGVFGGGTKLTVL
notes: Fab
For B9, the Kd in the assay with human ActRIIA [5] amounted to 0.055 nM; with human ActRIIB [6], 0.062 nM. The molecule also showed an IC50, Activin SMAD RGA in assay [7] of 1.5 nM. Moreover, in assay [7], the IC50, Myostatin SMAD RGA is 2.32 nM.

B10: Schwardamaga, Human IgG1-PALALA-YTE (antibody, V domains shown)
VH: QVQLVQSGAEVKKPGSSVKVSCKASGYTFTSSYINWVRQAPGQGLEWMGTINAVSGSTSYAQKFQGRVTITADTSTSTAYMELSSLRSEDTAVYYCARGGWFDYWGQGTLVTVSS
VL: QSALTQPRSVSGSPGQSVTISCTGTSSDVGSANYVNWYQQHPGKAPKPMIYGVSRRPSGVPDRFSGSKSGNTASLTISGLQAEDEADYYCGTFAGGKYYGVFGGGTKLTVL
notes: as for B5
Consider B10, for which the results for the Kd in the assay with human ActRIIA [8] and in the assay with human ActRIIB [4] were 0.04 nM and 0.013 nM, respectively.

B11: Schwardamaga, Human IgG1-PALALA (antibody, V domains shown)
VH: QVQLVQSGAEVKKPGSSVKVSCKASGYTFTSSYINWVRQAPGQGLEWMGTINAVSGSTSYAQKFQGRVTITADTSTSTAYMELSSLRSEDTAVYYCARGGWFDYWGQGTLVTVSS
VL: QSALTQPRSVSGSPGQSVTISCTGTSSDVGSANYVNWYQQHPGKAPKPMIYGVSRRPSGVPDRFSGSKSGNTASLTISGLQAEDEADYYCGTFAGGKYYGVFGGGTKLTVL
notes: as for B6
On to B11, for which the values for the Kd with human ActRIIA [8] and with human ActRIIB [4] were 0.036 nM and 0.011 nM, respectively.

B12: Antibody Pfitzauf (antibody, V domains shown)
VH: QVQLVQSGAEVKKPGASVKVSCKASGYTFTSSYINWVRQAPGQGLEWMGTINPVSGSTSYAQKFQGRVTMTRDTSISTAYMELSRLRSDDTAVYYCARGGWFDYWGQGTLVTVSS
VL: QSALTQPASVSGSPGQSITISCTGTSSDVGSGNYVNWYQQHPGKAPKLMIYGVSKRESGVSNRFSGSKSGNTASLTISGLQAEDEADYYCGTFAGGKYYGVFGGGTKLTVL
notes: full-length IgG
On to B12, for which the Kd in the assay with human ActRIIA [1] turned out to be 0.052 nM. The same molecule yielded a dissociation constant Kd with human ActRIIB [2] of 0.008 nM. In assay [3], the IC50, Activin SMAD RGA is 0.231 nM; the IC50, Myostatin SMAD RGA was 0.0984 nM; the IC90, Activin SMAD RGA came to 3.03 nM; the IC90, Myostatin SMAD RGA turned out to be 1.35 nM.
